Test results reported in patent US20230212305A1 (published 2023).

What was measured:
[1] = target: T1, human ABCG2 (UniProt Q9UNQ0 1-655); experiment: FACS cell binding
T1 chain: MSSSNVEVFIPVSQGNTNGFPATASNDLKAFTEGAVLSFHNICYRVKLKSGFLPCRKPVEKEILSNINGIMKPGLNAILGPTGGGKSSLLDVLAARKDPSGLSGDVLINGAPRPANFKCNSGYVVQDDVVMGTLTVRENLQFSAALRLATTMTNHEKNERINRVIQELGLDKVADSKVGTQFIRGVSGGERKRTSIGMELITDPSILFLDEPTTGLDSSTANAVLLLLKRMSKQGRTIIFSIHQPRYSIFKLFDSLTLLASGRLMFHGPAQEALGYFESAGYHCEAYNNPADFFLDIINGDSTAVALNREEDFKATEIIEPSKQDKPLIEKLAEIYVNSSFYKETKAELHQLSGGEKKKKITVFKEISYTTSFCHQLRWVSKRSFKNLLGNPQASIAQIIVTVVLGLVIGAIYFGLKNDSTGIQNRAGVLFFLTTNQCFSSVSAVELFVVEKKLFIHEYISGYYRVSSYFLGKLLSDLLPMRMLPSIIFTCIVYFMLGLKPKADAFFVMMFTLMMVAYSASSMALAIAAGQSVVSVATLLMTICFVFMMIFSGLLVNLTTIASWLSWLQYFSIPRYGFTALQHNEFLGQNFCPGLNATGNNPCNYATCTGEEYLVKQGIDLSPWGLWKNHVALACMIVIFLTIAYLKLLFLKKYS

[2] = target: T1, human ABCG2; experiment: FACS cell binding (MFI)
[3] = target: T2, cynomolgus ABCG2 (Macaca fascicularis) (UniProt Q5MB13 1-654); experiment: FACS binding to 293T cells
T2 chain: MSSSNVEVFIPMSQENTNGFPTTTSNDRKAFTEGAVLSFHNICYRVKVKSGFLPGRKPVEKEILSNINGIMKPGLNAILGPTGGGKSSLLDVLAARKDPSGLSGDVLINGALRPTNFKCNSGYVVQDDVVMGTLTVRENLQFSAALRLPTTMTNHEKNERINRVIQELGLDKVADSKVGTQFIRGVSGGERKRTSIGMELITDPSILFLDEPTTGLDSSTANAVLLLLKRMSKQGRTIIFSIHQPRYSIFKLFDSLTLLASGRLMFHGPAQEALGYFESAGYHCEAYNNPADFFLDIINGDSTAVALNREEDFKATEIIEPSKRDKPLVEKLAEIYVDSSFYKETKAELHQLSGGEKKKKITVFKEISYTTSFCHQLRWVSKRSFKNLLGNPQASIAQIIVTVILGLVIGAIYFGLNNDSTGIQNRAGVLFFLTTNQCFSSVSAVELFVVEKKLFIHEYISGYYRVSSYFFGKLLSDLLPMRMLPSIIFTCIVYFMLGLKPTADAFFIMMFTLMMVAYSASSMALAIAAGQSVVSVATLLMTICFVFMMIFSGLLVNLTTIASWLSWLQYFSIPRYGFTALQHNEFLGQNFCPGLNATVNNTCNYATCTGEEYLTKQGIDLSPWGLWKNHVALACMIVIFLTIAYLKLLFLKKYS

[4] = target: T1, human ABCG2; experiment: FACS binding to 293T cells
[5] = target: T2, cynomolgus ABCG2 (Macaca fascicularis); experiment: FACS binding to 293T cells
[6] = target: T1, human ABCG2; experiment: FACS binding to 293T cells
[7] = target: T2, cynomolgus ABCG2 (Macaca fascicularis); experiment: cell binding
[8] = target: T1, human ABCG2; experiment: cell binding
[9] = target: G2_418; experiment: FACS binding to 293T cells
[10] = target: G2_639; experiment: FACS binding to 293T cells
[11] = target: G2_377; experiment: FACS binding to 293T cells
[12] = target: G2_656; experiment: FACS binding to 293T cells
[13] = target: G2_709; experiment: FACS binding to 293T cells
[14] = target: G2_336; experiment: FACS binding to 293T cells
[15] = target: T2, cynomolgus ABCG2 (Macaca fascicularis); experiment: FACS binding to 293T.cG2 cells
[16] = target: T2, cynomolgus ABCG2 (Macaca fascicularis); experiment: FACS binding to 293T cells
[17] = target: T1, human ABCG2; experiment: FACS binding to 293T cells
[18] = target: T1, human ABCG2; experiment: FACS binding to 293T.hG2 cells
[19] = target: T2, cynomolgus ABCG2 (Macaca fascicularis); experiment: FACS binding to 293T cells
[20] = target: T1, human ABCG2; experiment: FACS binding to 293T cells

B1: G2.302 mouse (antibody, V domains shown)
VH: QIQLQQSGPELVRPGASVKISCKASGYTFTDYYINWVKQRPGQGLEWIGWIYPGNVNVKYNEKFKGKATLTVDTSSSTGYMQLRSLTSEDSAVYFCARSIGLRYFDNWGQGTTLTVSS
VL: EKVLTQSPAIMSASLGEKVTMSCRASSSVHYMYWHQQKSDASPRLWIYYTSNLAPGVPARFSGSGSGNFYSLTISSVEDEDGATYYCQQFTTSTWTFGGGTKLEIK
Kd [1]: 0.0336 µM | EC50 [2]: 0.0185 µM

B2: G2_360 (antibody, V domains shown)
VH: QVQLRESGPGLVQPSQTLSLTCTVSGLSLTSNSISWIRQPPGKGLEWMGVIWSTGGTDYNSAIKSRLSISRDTSKSQVFLKMNSLQTEDTAMYFCARAIAASAVMDAWGQGASVTVSS
VL: DIQMTQSPPSLSASLGDKVTITCQASQNIHKYIGWYQQKPGKAPRLLIRYTSTLESGTPSRFSGSGSGRYYSFSISNVESEDIASYYCLQYVNLWTFGGGTKLELK
Kd [3]: 0.156 µM | Kd [4]: 0.0237 µM

B3: G2_746 (antibody, V domains shown)
VH: VKLEESGPGLVLPSQTLSLSCTVSGLSLISNSISWIRQPPGKGLEWMGVMWNNGGTDYNSAIKSRLSISRDTSKSQVFLKMNSLQTEDTAMYFCARGYSSYIFDYWGQGASVTVSS
VL: DILMTQSPPSLSASLGDKVTITCQASQNIHGYIAWYQQKPGRLPRLLIRLTSTLESGTPSRFSGSGSGRDYSFSISNVESEDLASYYCLQYVNLWTFGGGTKLELK
Kd [5]: 0.0664 µM | Kd [6]: 0.0223 µM

B4: G2.636 rat (antibody, V domains shown)
VH: EVKLVESGGGLVQPGRSLKLSCAASGFTFSRFYMAWVRQAPTKGLEWVAHISHGGDTTYYRDSVKGRFTISRDNAKSTLFLQMDSLRSEDTATYYCTTSAAPWNYVMDGWGLGASVTVSS
VL: DIVMTQSPSLLSASVGDRVTLTCKGSQNINNFLAWYQQKLGEAPKLLIYKTNSLHTGIPSRFSGSGSGTDYTLTISSLHSEDLATYYCYQYNNGYTFGAGTKLELK
EC50 [7]: 0.341 µM | EC50 [8]: 0.08 µM | Kd [5]: 0.0625 µM | Kd [6]: 0.0109 µM

B5: cG2 (other)
chain: MSSSNVEVFIPMSQENTNGFPTTTSNDRKAFTEGAVLSFHNICYRVKVKSGFLPGRKPVEKEILSNINGIMKPGLNAILGPTGGGKSSLLDVLAARKDPSGLSGDVLINGALRPTNFKCNSGYVVQDDVVMGTLTVRENLQFSAALRLPTTMTNHEKNERINRVIQELGLDKVADSKVGTQFIRGVSGGERKRTSIGMELITDPSILFLDEPTTGLDSSTANAVLLLLKRMSKQGRTIIFSIHQPRYSIFKLFDSLTLLASGRLMFHGPAQEALGYFESAGYHCEAYNNPADFFLDIINGDSTAVALNREEDFKATEIIEPSKRDKPLVEKLAEIYVDSSFYKETKAELHQLSGGEKKKKITVFKEISYTTSFCHQLRWVSKRSFKNLLGNPQASIAQIIVTVILGLVIGAIYFGLNNDSTGIQNRAGVLFFLTTNQCFSSVSAVELFVVEKKLFIHEYISGYYRVSSYFFGKLLSDLLPMRMLPSIIFTCIVYFMLGLKPTADAFFIMMFTLMMVAYSASSMALAIAAGQSVVSVATLLMTICFVFMMIFSGLLVNLTTIASWLSWLQYFSIPRYGFTALQHNEFLGQNFCPGLNATVNNTCNYATCTGEEYLTKQGIDLSPWGLWKNHVALACMIVIFLTIAYLKLLFLKKYS
Kd [9]: 0.0388 µM | Kd [10]: 0.0143 µM | Kd [11]: 0.0314 µM | Kd [12]: 0.272 µM | Kd [13]: 0.0414 µM | Kd [14]: 0.41 µM

B6: G2.173 Humanized 3 (antibody, V domains shown)
VH: EVQLVQSGAEVKKPGASVKVSCKASGFNIKDDYVHWVRQAPGQGLEWIGRIDPASGNTRYAPKFRGRATMTADTSISTAYMELSRLRSDDTAVYYCSPPLWVGGFAYWGQGTLVTVSS
VL: DVVMTQSPLSLPVTLGQPASISCRSSQSLVHSDVNTYLHWYQQRPGQSPRLLIYKVSNRFSGVPDRFSGSGSGTDFTLKISRVEAEDVGVYFCSQTTHVPYTFGGGTKLEIK
Kd [1]: 0.0335 µM

B7: anti-ABCG2 antibody 5D3 (antibody, V domains shown)
VH: QVQLQESGPGLVKPSQSLSLTCTVTGFSITSDYAWNWIRQFPGKKLEWMGYINFDGGTTYNPSLRGRISITRDTSKNQFFLQLRSVTPEDTATYYCATFYGAKGTLDYWGQGTSVTVSS
VL: DIVLTQSPSSFSVSLGDRVTISCKASGYILNRLAWYQQKPGNAPRLLISGATSLETGFPSRFSGTGSGKDYTLSISSLQTEDVGTYYCQQYWSTPWTFGGGTKLEIK
Kd [15]: 0.0992 µM | Kd [16]: 0.0992 µM | Kd [17]: 0.0377 µM | Kd [18]: 0.0377 µM | Kd [19]: 0.253 µM | Kd [20]: 0.0157 µM | EC50 [7]: 0.131 µM | EC50 [8]: 0.0049 µM | EC50 [2]: 0.0085 µM

B8: G2.748 rat (antibody, V domains shown)
VH: QVSLKESGPGMLQPSKTLSLTCSFSGFSLSTSGMVVNWIRQPSGKSLEWLAAIDWDGDKYYNPSLKHRLTVSKDTSNTQVVLKITSVDTADTATYYCARSIAPYRGWFGYWGQGTLVTVSS
VL: EIVLIQSPSSLPASLGERVTIICRASQDIGNNLNWYQQKPDGTIKPLIYFTSNFQSGVPSSFSGSRSGTDFSLTISSLEAEDFAMYYCQQDASLPWTFGGGTKLEIK
Kd [15]: 0.0005 µM | Kd [16]: 0.0005 µM | Kd [17]: 0.0005 µM | Kd [18]: 0.0005 µM
